Experimental data from patent publication US20040223966A1 (Pfizer, published 2004).

Molecular target: T1, ActRIIB-Fc (human)
T1 construct: The leader is stated as aa 1-21; also called ActRIIB fusion polypeptide; recombinant ActRIIB-Fc
Assay: ELISA: ActRIIB-Fc coated at 1 ug/ml, biotinylated ligand titrated, SA-HRP detection
Procedure: Biotinylated mature BMP-11 was prepared from BMP-11 latent complex in the same manner as described above. Recombinant ActRIIB-Fc, prepared as described in Examples 3 and 4, was coated on 96-well flat-bottom assay plates (Costar, NY, Cat. No. 3590) at 1 μg/ml in 0.2 M sodium carbonate buffer (pH 10) overnight at 4° C. Plates were then blocked with 1 mg/ml bovine serum albumin and washed following standard ELISA protocol. 100 μl aliquots of biotinylated GDF-8 or BMP-11 at various concentrations were added to the blocked ELISA plate, incubated for 1 hr and washed. The amount of bound GDF-8 or BMP-11 was detected by Streptavidin-Horseradish peroxidase (SA-HRP, BD PharMingen, San Diego, Calif., Cat. No. 13047E) followed by the addition of TMB (KPL, Gaithersburg, Md., Cat. No. 50-76-04). Colorimetric measurements were done at […] in a Molecular Devices microplate reader.

T1 sequence (chain, as listed by the source): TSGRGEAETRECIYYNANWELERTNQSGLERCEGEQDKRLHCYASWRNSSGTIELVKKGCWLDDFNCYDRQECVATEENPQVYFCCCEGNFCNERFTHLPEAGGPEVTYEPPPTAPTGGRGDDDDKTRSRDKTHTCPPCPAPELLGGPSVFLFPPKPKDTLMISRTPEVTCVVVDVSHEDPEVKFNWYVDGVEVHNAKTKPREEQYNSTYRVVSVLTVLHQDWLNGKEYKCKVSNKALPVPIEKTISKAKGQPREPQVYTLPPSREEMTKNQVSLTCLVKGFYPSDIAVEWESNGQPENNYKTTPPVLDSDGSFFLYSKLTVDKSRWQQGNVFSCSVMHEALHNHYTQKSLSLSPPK

B1: biotinylated mature BMP-11 (ligand, human, UniProt O95390 299-407, looked up)
chain: NLGLDCDEHSSESRCCRYPLTVDFEAFGWDWIIAPKRYKANYCSGQCEYMFMQKYPHTHLVQQANPRGSAGPCCTPTKMSPINMLYFNDKQQIIYGKIPGMVVDRCGCS
modifications: biotinylated with EZ-link Sulfo-NHS-Biotin, in the same manner as GDF-8; sites not stated
notes: mature; Active mature BMP-11 dimer purified from a cell line expressing recombinant human BMP-11; also called biotinylated BMP-11; GDF-11
With B1 as the binder, how does the EC50 read?
The EC50 was 0.04 µg/mL.
